Assay results as given in publication doi:10.1101/2023.12.09.570908 (bioRxiv, 2023).

How the values were obtained:
WDR5^22-334 [1] = biological target: T1, WDR5^22-334 (human, UniProt P61964 22-334); assay: ITC
WDR5^22-334 [2] = biological target: T1, WDR5^22-334; assay: ITC; remark: listed apart in the source

Kd against the 1:1 mixture of WDR5^22-334 and H3^1-15 (WDR5^22-334 [1]): 32 ± 3 µM
Kd (WDR5^22-334 [2]): 3.8 µM
Binder: SSRRSSHYPAAVQSQAAAERGASATAKSRAISI [PTENα-NTE^116-148 peptide]
